Assay results as given in PMC9449495, “Transcription factor VvibHLH93 negatively regulates proanthocyanidin biosynthesis in grapevine”.

Columns and labels:
VvibHLH93 [1] = target: T1, VvibHLH93 (Vitis vinifera, UniProt A0ABY9CC89 1-331); assay: EMSA; LightShift Chemiluminescent EMSA Kit (Thermo Fisher) per manufacturer's protocol; buffer, salt, pH and temperature not stated; conditions: protein: recombinant, tags: His (pET-32a fusion), chain copies: 2
VvibHLH93 [2] = target: T1, VvibHLH93; assay: competition; 50x unlabeled competitor vs N1; shifted band less abundant; LightShift Chemiluminescent EMSA Kit (Thermo Fisher) per manufacturer's protocol; buffer, salt, pH and temperature not stated; conditions: protein: recombinant; tags: His (pET-32a fusion); chain copies: 2

T1 sequence (A0ABY9CC89 entry or part of it): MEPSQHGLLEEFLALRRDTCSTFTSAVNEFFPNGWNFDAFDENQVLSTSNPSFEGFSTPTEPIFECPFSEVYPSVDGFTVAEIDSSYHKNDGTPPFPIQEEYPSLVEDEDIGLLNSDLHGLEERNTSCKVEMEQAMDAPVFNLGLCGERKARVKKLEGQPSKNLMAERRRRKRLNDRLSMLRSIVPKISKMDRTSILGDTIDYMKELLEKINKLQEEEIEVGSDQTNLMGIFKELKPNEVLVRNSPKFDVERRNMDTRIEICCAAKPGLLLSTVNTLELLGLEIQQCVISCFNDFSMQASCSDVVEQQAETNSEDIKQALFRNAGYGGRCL

B1: VviLAR1 promoter E/G-box mutant probe (dsDNA)
DNA 1: GAGTCGTTGAGGTATATCATTTTTTTGTTAGAAAATCTTATG
DNA 2: CATAAGATTTTCTAACAAAAAAATGATATACCTCAACGACTC
VvibHLH93 [1]
  binding result: no binding

B2: VviLAR1 promoter E/G-box probe (tandem MYC and G-box) (dsDNA)
DNA 1: GAGTCGTTGAGGCACATGATTTTTTTGTTAGGACGTGTTATG
DNA 2: CATAACACGTCCTAACAAAAAAATCATGTGCCTCAACGACTC
VvibHLH93 [1]; label: 3' biotin
  binding result: binds

B3: VviLAR1 promoter E/G-box cold probe (dsDNA)
DNA 1: B2 DNA 1
DNA 2: B2 DNA 2
VvibHLH93 [2]
  binding result: binds
